Results on one substance are retold here after paper PMC4701952.

In this assay the target is AG^(74-173) (A. thaliana) (UniProt P17839). Description: SAXS with on-line SEC; Superdex 75 3.2/300 PC on-line at ESRF BM29, 0.1 ml/min, room temperature, 30 mM Tris pH 8.0, 300 mM NaCl, 1 mM TCEP, 5% glycerol; mass from correlated volume and Porod volume; self-association.

AG^(74-173), sequence (P17839 74-173): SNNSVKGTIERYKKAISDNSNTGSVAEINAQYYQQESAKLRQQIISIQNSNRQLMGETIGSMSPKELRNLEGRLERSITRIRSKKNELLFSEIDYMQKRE

Consider “AG^(74-173) (from UniProt P17839 74-173) (domain or fragment)”, for which the stoichiometry N was found to be 2.

By stoichiometry N is commonly meant the number of molecules, sites or subunits per partner or assembly.
